Among the data in PMC6992781 are Kd values, retold here.

Several values for one entry are separate records, joined by “and”; a condition that tells them apart may be missing. Identical values can stand only once.

The experiment has as its target RVC20 (mature), recombinant human IgG1 (human). In words: BLI.

Sequence of RVC20 (mature), recombinant human IgG1 (human) (heavy, as listed by the source, chain 1 of 2): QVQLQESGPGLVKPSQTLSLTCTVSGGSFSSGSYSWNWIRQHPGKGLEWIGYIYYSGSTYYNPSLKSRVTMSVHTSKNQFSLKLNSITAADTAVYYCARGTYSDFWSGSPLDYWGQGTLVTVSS
Sequence of RVC20 (mature), recombinant human IgG1 (human) (light, as listed by the source, chain 2 of 2): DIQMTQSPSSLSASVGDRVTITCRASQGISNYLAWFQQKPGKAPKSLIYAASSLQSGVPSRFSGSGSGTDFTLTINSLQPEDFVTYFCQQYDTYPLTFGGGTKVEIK

In the case of “RABV G domain III (E31-V56 and N182-D262 joined by three glycines), strain 9147FRA (domain or fragment)”, the Kd was 7.95 nM and 11.3 nM and 12.2 nM.
